From patent US6815532B2, “ATR-2 cell cycle checkpoint” (ICOS Corporation, priority 1999, dated 2004)

Key:
Assay type in all cases: biochemical
PHAS-1 = experiment: ATR-2 kinase assay with substrate PHAS-1
histone H1 = experiment: ATR-2 kinase assay with substrate histone H1
myelin basic protein = experiment: ATR-2 kinase assay with exogenous substrate myelin basic protein; details: immunoprecipitate from transfected 293T cells, 30° C. for 30 min, 32P-ATP
Procedure: (§1) After 48 hr, cells were harvested and lysed in 0.5 ml lysis buffer (Example 6), and the lysates were precleared by incubation with 50 μl protein A beads for 2 hr at 4° C. The supernatant was immunoprecipitated with 6 μg anti-M2 antibody for one hr at 4° C. and the sample was divided into five aliquots. One hundred μl of the mixture was combined with 10 μl protein A beads for three hr at 4° C., after which the beads were washed twice with lysis buffer and three times in kinase buffer containing 10 mM HEPES, pH 7.4, 10 mM MnCl2, 50 mM NaCl, 10 mM MgCl2, and 5 mM DTT.
(§2) In the kinase assay, 10 μl protein A beads was mixed with 10 μl PKA and PKC inhibitors from a p79^S6 kinase assay kit (Upstate Biotechnology Inc., Lake Placid, N.Y.) and 10 μl ATP mixture: containing kinase buffer (above) with 10 mM ATP, 3 μCi ^32P-ATP, plus or minus 6 μl myelin basic protein as substrate. Reactions were incubated at 30° C. for 30 min and 20 μl of the reaction mixture was spotted onto P81 paper. The P81 paper was washed three times in 150 mM phosphoric acid and dried, and Cerenkov radiation measured.

Atr-2 protein = biological target: T1, Atr-2 protein (Homo sapiens, UniProt Q96Q15); experiment: ATR-2 kinase assay, autophosphorylation (immunoprecipitated FLAG-tagged Atr-2 fragment from 293T cells, 32P-ATP, P81 paper); details: immunoprecipitate from transfected 293T cells, 30° C. for 30 min
T1 construct: a region containing the putative kinase domain was subcloned into the mammalian expression vector, pCIneo; made in house; host or cells: 293T cells (transient transfection, anti-FLAG M2 immunoprecipitate on protein A beads)
Procedure: as §1, §2

B1: 73 kDa Atr-2 truncated protein: FLAG-tagged truncated human Atr-2 containing the putative kinase domain, expressed from pCIneoFLAGATR2 in 293T cells (protein)
chain: MLVAELRRVTVLWDELWLGVLLQQHMYVLRRIQQLEDEVKRVQNNNTLRKEEKIAIMREKHTALMKPIVFALEHVRSITAAPAETPHEKWFQDNYGDAIENALEKLKTPLNPAKPGSSWIPFKEIMLSLQQRAQKRASYILRLEEISPWLAAMTNTEIALPGEVSARDTVTIHSVGGTITILPTKTKPKKLLFLGSDGKSYPYLFKGLEDLHLDERIMQFLSIVNTMFATINRQETPRFHARHYSVTPLGTRSGLIQWVDGATPLFGLYKRWQQREAALQAQKAQDSYQTPQNPGIVPRPSELYYSKIGPALKTVGLSLDVSRRDWPLHVMKAVLEELMEATPPNLLAKELWSSCTTPDEWWRVTQSYARSTAVMSMVGYIIGLGDRHLDNVLIDMTTGEVVHIDYNVCFEKGKSLRVPEKVPFRMTQNIETALGVTGVEGVFRLSCEQVLHIMRRGRETLLTLLEAFVYDPLVDWTAGGEAGFAGAVYGGGGQQAESKQSKREMEREITRSLFSSRVAEIKVNWFKNRDEMLVVLPKLDGSLDEYLSLQEQLTDVEKLQGKLLEEIEFLEGAEGVDHPSHTLQHRYSEHTQLQTQQRAVQEAIQVKLNEFEQWITHYQAAFNNLEATQLASLLQEISTQMDLGPPSYVPA
modifications: left off: small tags and cut ends
notes: FLAG-tagged truncated human Atr-2 containing the putative kinase domain, expressed from pCIneoFLAGATR2 in 293T cells
kinase activity: phosphorylation of PHAS-1 (PHAS-1): did not phosphorylate | kinase activity: phosphorylation of histone H1 (histone H1): did not phosphorylate | kinase activity: phosphorylation of exogenous myelin basic protein substrate (myelin basic protein): able to phosphorylate | kinase activity: phosphorylation of the Atr-2 protein itself (Atr-2 protein): able to phosphorylate
